The results in this text go back to paper PMC5206724, “Insensitivity to pain induced by a potent selective closed-state Nav1.7 inhibitor” (Scientific Reports, 2017).

Experiment [1] addresses human Nav1.4 (human) (UniProt P35499).
For experiment [2], the target named is human Nav1.1 (human) (UniProt P35498).
Experiment [3] has as its target human Nav1.6 (human) (UniProt Q9UQD0).
For experiment [4], the target named is human Nav1.2 (human) (UniProt Q99250).
For experiment [5], the target named is human Nav1.5 (human) (UniProt Q14524).
Experiment [6] addresses human Nav1.3 (human) (UniProt Q9NY46).

Chain of human Nav1.4 (human) (P35499 whole entry): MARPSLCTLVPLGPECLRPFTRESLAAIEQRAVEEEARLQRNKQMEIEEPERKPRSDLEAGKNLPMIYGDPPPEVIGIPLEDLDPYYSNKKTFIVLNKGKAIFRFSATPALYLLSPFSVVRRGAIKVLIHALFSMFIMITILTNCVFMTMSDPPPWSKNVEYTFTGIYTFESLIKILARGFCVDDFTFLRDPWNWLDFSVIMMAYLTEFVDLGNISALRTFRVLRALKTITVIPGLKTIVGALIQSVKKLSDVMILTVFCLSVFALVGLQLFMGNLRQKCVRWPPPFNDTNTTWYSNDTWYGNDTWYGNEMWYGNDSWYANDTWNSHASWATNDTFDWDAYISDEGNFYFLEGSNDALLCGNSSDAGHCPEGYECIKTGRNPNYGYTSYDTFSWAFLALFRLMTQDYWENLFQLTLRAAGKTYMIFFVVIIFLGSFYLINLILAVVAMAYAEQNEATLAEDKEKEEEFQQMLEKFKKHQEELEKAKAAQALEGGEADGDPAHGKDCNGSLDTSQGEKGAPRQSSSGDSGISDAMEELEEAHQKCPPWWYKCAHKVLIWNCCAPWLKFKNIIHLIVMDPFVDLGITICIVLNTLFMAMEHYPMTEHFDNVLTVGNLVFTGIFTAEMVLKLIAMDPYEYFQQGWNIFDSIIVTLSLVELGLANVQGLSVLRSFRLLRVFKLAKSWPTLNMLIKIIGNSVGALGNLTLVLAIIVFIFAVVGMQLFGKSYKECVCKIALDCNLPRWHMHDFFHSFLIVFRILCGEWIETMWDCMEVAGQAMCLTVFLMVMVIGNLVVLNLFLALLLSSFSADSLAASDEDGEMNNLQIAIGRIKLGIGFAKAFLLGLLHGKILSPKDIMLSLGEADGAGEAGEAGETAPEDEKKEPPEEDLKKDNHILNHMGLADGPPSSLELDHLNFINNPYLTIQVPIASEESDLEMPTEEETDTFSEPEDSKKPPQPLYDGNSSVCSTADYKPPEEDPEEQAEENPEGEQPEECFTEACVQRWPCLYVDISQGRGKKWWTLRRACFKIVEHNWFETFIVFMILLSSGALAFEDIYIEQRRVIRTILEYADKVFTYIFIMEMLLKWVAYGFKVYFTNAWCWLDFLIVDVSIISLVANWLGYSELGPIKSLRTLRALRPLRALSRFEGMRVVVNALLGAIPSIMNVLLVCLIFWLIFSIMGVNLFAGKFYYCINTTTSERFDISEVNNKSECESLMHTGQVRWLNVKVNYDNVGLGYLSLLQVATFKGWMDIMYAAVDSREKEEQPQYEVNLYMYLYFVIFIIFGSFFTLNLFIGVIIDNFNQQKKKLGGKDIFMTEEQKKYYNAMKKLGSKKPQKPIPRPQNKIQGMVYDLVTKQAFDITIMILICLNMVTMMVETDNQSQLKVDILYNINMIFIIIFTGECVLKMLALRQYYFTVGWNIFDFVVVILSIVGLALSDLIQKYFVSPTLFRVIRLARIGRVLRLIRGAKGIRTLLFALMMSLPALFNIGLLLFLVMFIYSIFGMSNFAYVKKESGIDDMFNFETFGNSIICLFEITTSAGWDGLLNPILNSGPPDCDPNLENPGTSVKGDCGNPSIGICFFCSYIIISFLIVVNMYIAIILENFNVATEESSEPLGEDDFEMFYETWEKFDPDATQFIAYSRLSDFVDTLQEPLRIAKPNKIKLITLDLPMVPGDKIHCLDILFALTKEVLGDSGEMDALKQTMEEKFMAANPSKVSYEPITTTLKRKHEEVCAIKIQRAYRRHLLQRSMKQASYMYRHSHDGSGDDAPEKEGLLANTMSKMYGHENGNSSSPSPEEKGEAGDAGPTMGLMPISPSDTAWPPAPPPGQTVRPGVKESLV
Chain of human Nav1.6 (human) (Q9UQD0 whole entry): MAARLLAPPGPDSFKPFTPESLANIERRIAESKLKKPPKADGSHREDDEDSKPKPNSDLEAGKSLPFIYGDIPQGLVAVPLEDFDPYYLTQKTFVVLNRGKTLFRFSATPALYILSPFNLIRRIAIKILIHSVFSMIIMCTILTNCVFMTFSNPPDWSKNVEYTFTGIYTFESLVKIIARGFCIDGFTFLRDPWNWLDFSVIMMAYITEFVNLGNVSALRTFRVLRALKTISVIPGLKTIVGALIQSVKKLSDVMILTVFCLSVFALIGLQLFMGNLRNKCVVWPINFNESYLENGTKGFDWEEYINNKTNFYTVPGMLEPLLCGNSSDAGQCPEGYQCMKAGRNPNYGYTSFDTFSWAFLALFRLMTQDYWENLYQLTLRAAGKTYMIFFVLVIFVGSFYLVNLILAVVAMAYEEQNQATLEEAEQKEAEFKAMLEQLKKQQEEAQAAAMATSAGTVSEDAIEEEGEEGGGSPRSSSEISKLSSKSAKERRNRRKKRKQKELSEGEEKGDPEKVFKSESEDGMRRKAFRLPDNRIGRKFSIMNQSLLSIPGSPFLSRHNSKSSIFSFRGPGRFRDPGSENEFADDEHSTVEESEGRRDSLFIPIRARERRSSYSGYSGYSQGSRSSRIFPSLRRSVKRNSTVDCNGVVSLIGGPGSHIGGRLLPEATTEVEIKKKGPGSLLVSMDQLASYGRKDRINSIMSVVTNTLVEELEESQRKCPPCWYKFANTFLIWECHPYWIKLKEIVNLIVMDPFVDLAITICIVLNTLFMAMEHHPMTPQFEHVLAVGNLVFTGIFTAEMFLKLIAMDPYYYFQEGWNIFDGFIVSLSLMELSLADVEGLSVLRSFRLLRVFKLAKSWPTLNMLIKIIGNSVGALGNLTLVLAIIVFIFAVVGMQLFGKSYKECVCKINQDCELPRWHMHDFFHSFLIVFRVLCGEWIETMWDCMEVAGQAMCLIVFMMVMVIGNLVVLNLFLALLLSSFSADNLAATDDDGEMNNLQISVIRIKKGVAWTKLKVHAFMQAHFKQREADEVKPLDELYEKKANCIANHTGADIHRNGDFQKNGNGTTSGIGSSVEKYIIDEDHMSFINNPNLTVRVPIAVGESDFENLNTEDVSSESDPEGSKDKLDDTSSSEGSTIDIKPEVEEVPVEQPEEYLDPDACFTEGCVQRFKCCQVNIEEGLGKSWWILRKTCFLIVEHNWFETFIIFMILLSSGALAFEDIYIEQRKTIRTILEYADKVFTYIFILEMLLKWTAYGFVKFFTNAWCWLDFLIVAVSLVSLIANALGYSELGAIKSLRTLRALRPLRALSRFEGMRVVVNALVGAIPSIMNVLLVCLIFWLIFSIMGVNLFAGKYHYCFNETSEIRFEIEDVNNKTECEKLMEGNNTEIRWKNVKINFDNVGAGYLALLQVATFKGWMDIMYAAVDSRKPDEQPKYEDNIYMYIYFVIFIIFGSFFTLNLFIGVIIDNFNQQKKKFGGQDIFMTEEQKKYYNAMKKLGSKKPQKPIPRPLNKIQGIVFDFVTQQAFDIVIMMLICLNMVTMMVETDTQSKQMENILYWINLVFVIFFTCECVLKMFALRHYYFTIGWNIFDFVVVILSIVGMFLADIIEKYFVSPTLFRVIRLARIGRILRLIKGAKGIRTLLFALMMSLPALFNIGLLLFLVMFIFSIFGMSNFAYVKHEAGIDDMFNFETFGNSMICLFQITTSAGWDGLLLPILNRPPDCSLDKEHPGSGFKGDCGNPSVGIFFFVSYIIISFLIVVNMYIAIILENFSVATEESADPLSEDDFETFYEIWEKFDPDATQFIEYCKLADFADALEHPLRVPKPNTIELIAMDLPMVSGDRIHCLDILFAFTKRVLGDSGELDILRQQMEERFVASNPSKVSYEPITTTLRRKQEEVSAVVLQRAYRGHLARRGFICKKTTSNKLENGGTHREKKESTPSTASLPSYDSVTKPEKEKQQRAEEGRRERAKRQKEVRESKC
Chain of Protoxin-II (β/ω-theraphotoxin-Tp2a) (P83476 whole entry): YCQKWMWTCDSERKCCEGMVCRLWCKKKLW

On to “Protoxin-II (β/ω-theraphotoxin-Tp2a) (from UniProt P83476 1-30) (peptide)”, for which the pIC50 of inhibition of sodium current, automated patch clamp (QPatch); fitted Emax 100 % was 7.1 -log10(IC50) in experiment [1]; 7.8 -log10(IC50) in experiment [2]; 7.5 -log10(IC50) in experiment [3]; 7.1 -log10(IC50) in experiment [4]; 6.4 -log10(IC50) in experiment [5]; 7.6 -log10(IC50) in experiment [6].
